Results from doi:10.1101/2020.06.30.176701 (bioRxiv, 2020).
Read-outs that look alike come from different tables or passages of the source. Each block holds one binder with its values, some of them ahead of it.

Columns and labels:
Experiment in all cases: high-speed atomic force microscopy
[1] = biological target: T1, archaeal ribosomal P-stalk complex aP0•(aP1•aP1)3 (Pyrococcus horikoshii, UniProt O74109 1-342; O57705 1-108)
T1 sequence (looked up) 1: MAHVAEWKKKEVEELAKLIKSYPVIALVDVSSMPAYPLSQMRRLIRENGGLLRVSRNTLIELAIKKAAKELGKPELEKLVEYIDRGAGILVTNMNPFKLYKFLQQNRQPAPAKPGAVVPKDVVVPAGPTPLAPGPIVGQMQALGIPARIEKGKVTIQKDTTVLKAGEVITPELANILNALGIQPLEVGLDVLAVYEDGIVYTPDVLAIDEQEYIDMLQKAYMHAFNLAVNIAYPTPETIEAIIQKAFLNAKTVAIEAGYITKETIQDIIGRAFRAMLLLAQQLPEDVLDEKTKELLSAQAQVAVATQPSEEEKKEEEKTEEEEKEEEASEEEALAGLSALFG
T1 sequence (looked up) 2: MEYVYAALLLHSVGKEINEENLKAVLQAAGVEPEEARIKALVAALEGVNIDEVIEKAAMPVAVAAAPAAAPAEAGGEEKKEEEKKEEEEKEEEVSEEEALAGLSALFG

[2] = biological target: T1, archaeal ribosomal P-stalk complex …; remark: listed apart in the source
[3] = biological target: T1, archaeal ribosomal P-stalk complex …; remark: listed apart in the source
[4] = biological target: T1, archaeal ribosomal P-stalk complex …; remark: listed apart in the source
[5] = biological target: T1, archaeal ribosomal P-stalk complex …; remark: listed apart in the source

fold distribution near the P-stalk relative to the opposite control area [1]: ~4.3 fold | stoichiometry N [2]: ≤ 7 aEF2 molecules per P-stalk | fold distribution near the P-stalk relative to the opposite control area [3]: 6.6 fold
B1: archaeal elongation factor 2 (aEF2) of Pyrococcus furiosus (natural protein, UniProt P61877 1-732, looked up)
chain: MGRREEMIAKIKELMLQPERIRNIGIAAHIDHGKTTLSDNLLAGAGMISEELAGKQLVLDFDEQEQARGITINAANVSMVHNYEGKDYLINLIDTPGHVDFGGDVTRAMRAIDGVIIVVDAVEGVMPQTETVVRQALREYVKPVLFINKVDRLIRELKLTPQQMMERFSKIIMDVNRLIQRYAPEEYKKKWMVRVEDGSVAFGSAYYNWALSVPFMQRTGVKFNEIIDLTLKGDNKTLRQRAPLHVVVLDMVVRHLPSPIEAQKYRIPHLWQGDINSKIGQAMLNCDPKGKMVMVITKIIIDKHAGEVATGRVWSGTVRSGQEVYLINSKRKGRIQQVGIYMGPERINMEAVPAGNIVAVTGLRDAMAGETVAEEQIEPFEALHYVSEPVVTVAIEAKNVKDLPRLIEALRQLAKEDPTLHVKIDEETGQHLLSGMGELHLEVKLYKLQKDWGIEVDVSEPIVVYRESITKPSPIVEGKSPNKHNRFYVVVEPMPDEIYQAIKEGIIPEGRVKDPKAVAKKLAELGMDYDIARGVVDIYNGNMFLDNTKGIQYLNEVMDLLIDGFHQAMDEGPLAKEPVMKVIVRLVDAQVHEDNVHRGPAQIYPAIRTAIHCAMMKAGPVLYEPYQKVIINIPYEYMGAVSREISQRRGQLIDMRQEGEVMTIIAEAPVAEMFGFAGAIRSATSGRALWSTEHAGFKRVPNELAQQIIRQIRQRKGLDPNPPTEKDVCPLF

fold distribution near the P-stalk relative to the opposite control area [4]: 2.6 fold | fold distribution near the P-stalk relative to the opposite control area [5]: 4.2 fold
B2: archaeal elongation factor 1A (aEF1A) of Pyrococcus furiosus (natural protein, UniProt Q8U152 1-428, looked up)
chain: MPKDKPHVNIVFIGHVDHGKSTTIGRLLYDTGNIPEQIIKKFEEMGEKGKSFKFAWVMDRLKEERERGITIDVAHTKFETPHRYITIIDAPGHRDFVKNMITGASQADAAVLVVAATDGVMPQTKEHAFLARTLGIKHIIVAINKMDMVNYNQKRFEEVKAQVEKLLKMLGYKDFPVIPISAWEGENVVKKSDKMPWYNGPTLIEALDQIPEPEKPVDKPLRIPIQDVYSIKGVGTVPVGRVETGKLRVGEVVIFEPASTIFHKPIQGEVKSIEMHHEPLEEALPGDNIGFNVRGVSKNDIKRGDVAGHTTNPPTVVRTKDTFKAQIIVLNHPTAITVGYSPVLHAHTAQVPVRFEQLLAKLDPKTGNIVEENPQFIKTGDAAIVILRPMKPVVLEPVKEIPQLGRFAIRDMGMTIAAGMVISIQRGE
